Data on one molecule can be found in patent publication US20120230990A1 (MERCK SERONO, published 2012).

As usually defined, the Kd is the free concentration of one partner at which half of the binding sites on the other are occupied at equilibrium, for simple one-to-one binding.

Assay [1] deals with T1, human IL-22RA-ECD (IL-22RA-Extra Cellular Domain) (human, UniProt Q8N6P7 16-228).
T1 construct: also called human IL-22RA extracellular domain; hIL-22RA coated on the plates; not shown: 6 His tag
T1 sequence: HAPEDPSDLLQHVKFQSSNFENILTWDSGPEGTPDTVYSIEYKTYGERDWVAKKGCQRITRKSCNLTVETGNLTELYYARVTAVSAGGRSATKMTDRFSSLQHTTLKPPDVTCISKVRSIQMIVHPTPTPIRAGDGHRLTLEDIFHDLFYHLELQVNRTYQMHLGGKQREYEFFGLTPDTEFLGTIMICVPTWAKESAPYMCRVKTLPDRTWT
Nature of the assay: Biacore, IL-22RA-ECD with 6 His tag. For orientation: In SPR one partner is held on a chip, and binding of the other changes the refractive index at the surface.

The target in assay [2] is T2, rat IL-22RA-ECD (rat).
T2 construct: extracellular domain; Produced in HEK-293 cells and NiNTA-purified
Nature of the assay: Biacore, IL-22RA-ECD with 6 His tag.

Assay [3] has as its target T3, mouse IL-22RA-ECD (mouse, UniProt Q80XZ4 16-230).
T3 construct: extracellular domain; Produced in HEK-293 cells and NiNTA-purified; not shown: 6 His tag
T3 sequence (looked up): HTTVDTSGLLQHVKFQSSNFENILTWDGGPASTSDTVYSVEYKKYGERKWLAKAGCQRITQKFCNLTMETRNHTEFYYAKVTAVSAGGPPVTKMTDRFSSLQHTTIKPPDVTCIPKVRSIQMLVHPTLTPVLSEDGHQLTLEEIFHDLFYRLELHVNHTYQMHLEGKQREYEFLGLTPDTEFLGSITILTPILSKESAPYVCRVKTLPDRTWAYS
Nature of the assay: Biacore, IL-22RA-ECD with 6 His tag.

The target in assay [4] is T4, marmoset monkey IL-22RA-ECD (marmoset monkey).
T4 construct: extracellular domain; Produced in HEK-293 cells and NiNTA-purified
Nature of the assay: Biacore, IL-22RA-ECD with 6 His tag.

Another assay addresses T5, dog IL-22RA-ECD (dog).
T5 construct: extracellular domain; Produced in HEK-293 cells and NiNTA-purified
Nature of the assay: Biacore, IL-22RA-ECD with 6 His tag.

For assay [5], the target named is T1, human IL-22RA-ECD (IL-22RA-Extra …). Nature of the assay: KinExA, IL-22RA-ECD with 6 His tag.
For assay [6], the target named is T2, rat IL-22RA-ECD. Nature of the assay: KinExA, IL-22RA-ECD with 6 His tag.
Assay [7] concerns the target T3, mouse IL-22RA-ECD. Nature of the assay: KinExA, IL-22RA-ECD with 6 His tag. Background: In KinExA the mixture passes briefly over coated beads that capture the unbound partner.
Assay [8] concerns the target T4, marmoset monkey IL-22RA-ECD. Nature of the assay: KinExA, IL-22RA-ECD with 6 His tag.
Assay [9] concerns the target T6, cynomolgus monkey IL-22RA-ECD (cynomolgus monkey).
T6 construct: extracellular domain; Produced in HEK-293 cells and NiNTA-purified
Nature of the assay: KinExA, IL-22RA-ECD with 6 His tag.

Assay [10] concerns the target T7, rhesus monkey IL-22RA-ECD (rhesus monkey).
T7 construct: extracellular domain; Produced in HEK-293 cells and NiNTA-purified
Nature of the assay: KinExA, IL-22RA-ECD with 6 His tag.

The target of assay [11] is T8, human IL-22RA on cells (HepG2 hepatoma cells, normal human keratinocytes, BaF3 cells transfected with human … (human, UniProt Q8N6P7 16-574)).
T8 sequence: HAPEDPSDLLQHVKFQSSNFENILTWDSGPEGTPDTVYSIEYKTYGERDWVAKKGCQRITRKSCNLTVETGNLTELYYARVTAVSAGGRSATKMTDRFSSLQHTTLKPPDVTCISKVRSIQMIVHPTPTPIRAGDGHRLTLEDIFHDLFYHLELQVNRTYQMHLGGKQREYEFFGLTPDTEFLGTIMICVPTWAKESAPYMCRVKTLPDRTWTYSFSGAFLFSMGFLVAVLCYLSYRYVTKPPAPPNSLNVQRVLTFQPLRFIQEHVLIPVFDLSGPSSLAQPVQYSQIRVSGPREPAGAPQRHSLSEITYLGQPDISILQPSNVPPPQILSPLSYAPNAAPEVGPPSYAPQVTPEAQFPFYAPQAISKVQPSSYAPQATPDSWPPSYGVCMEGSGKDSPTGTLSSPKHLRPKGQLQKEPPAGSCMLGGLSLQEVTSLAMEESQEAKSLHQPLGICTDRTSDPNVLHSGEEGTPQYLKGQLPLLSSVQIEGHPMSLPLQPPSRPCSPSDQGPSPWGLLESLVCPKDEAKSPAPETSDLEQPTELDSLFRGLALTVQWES
Nature of the assay: cell-based or functional assay.

Assay [12] concerns the target T9, murine IL-22RA on cells (HEPA1-6 hepatoma cells, BaF3 cells transfected with murine IL-22RA and IL-10RB) (murine, UniProt Q80XZ4 16-581).
T9 sequence (looked up): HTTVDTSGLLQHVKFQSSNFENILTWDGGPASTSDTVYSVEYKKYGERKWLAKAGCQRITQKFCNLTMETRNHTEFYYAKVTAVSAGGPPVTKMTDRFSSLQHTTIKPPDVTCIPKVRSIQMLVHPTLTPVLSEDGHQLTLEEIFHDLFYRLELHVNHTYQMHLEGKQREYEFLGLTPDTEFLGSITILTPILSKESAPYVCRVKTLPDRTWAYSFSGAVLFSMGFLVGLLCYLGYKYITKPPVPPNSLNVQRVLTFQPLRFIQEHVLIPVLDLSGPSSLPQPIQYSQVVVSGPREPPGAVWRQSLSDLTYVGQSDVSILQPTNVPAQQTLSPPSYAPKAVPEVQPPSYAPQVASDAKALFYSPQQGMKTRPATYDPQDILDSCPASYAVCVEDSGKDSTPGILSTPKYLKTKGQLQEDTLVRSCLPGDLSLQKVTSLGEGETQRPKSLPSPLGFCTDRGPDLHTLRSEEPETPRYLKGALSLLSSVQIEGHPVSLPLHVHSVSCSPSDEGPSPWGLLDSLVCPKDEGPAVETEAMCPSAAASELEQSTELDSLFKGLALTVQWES
Nature of the assay: cell-based or functional assay.

The target of assay [13] is T3, mouse IL-22RA-ECD. Nature of the assay: KinExA and Biacore, IL-22RA-ECD with 6 His tag.

B1: 280.346.TSY (humanized anti-human IL-22RA antibody comprising 280.VH3-66-46 paired with 280.VK4-1-TSY, human IgG1/kappa) (antibody, V domains shown)
VH: EVQLVESGGGLVQPGGSLRLSCAASGYSITAEYMNWVRQAPGKGLEWIGEINPSTGTTTYNQKFKGRFTISVDQSKNTAYLQMNSLRAEDTAVYYCARFDAYFDYWGQGTLVTVSS
VL: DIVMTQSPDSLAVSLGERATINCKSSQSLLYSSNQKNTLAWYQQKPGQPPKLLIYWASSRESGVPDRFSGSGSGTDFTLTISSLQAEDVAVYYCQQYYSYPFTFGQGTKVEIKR
notes: Produced in CHO cells; also called 280.VH3-66-46/VK4-1-TSY; 280.VH3-66.46 paired with 280.IGKV4-1-TSY
For B1, the Kd in [1] is approximately 0.15 nM; with rat IL-22RA-ECD [2], approximately 1000 nM; with mouse IL-22RA-ECD [3] it was approximately 20 nM; in [4], 0.4 nM; in the assay with dog IL-22RA-ECD it was 100 nM; in assay [5] it was approximately 0.0285 nM. In addition, the Kd in the assay with rat IL-22RA-ECD [6] was approximately 587 nM; with mouse IL-22RA-ECD [7], approximately 4.85 nM; in assay [8] it was approximately 0.0385 nM; in assay [9], approximately 0.0645 nM; in assay [10], approximately 0.137 nM. For the same molecule, in assay [11], the “IC50, STAT3 phosphorylation assay in human HepG2 hepatoma cells stimulated with recombinant human IL-22” value amounted to 0.0552 nM. In addition, in assay [11], the “IC50, STAT3 phosphorylation assay in normal human keratinocytes stimulated with recombinant human IL-22” value is 0.061 nM. Moreover, the “IC50, proliferation assay in BaF3 cells transfected with human IL-22RA and IL-10RB, cultured with recombinant human IL-22” value in assay [11] is 0.317 nM. The “fold potency against the mouse parental antibody 280.46.3.4, STAT3 phosphorylation assay in HepG2 cells” value in assay [11] was approximately 5 fold. For the same molecule, the “fold potency against the mouse parental antibody 280.46.3.4, STAT3 phosphorylation assay in normal human keratinocytes” value in assay [11] is approximately 9 fold. Besides, the “fold potency against the mouse parental antibody 280.46.3.4, proliferation of human IL-22 receptor transfected BaF3 cells” value in assay [11] was 1.7 fold. Moreover, in assay [12], the “IC50, STAT3 phosphorylation assay in murine HEPA1-6 hepatoma cells stimulated with recombinant murine IL-22” value was determined as 2.1 nM. Also, the “IC50, proliferation assay in BaF3 cells transfected with murine IL-22RA and IL-10RB, cultured with recombinant murine IL-22” value in assay [12] was found to be 0.137 nM. For the same molecule, the “fold potency against the mouse parental antibody 280.46.3.4, proliferation of mouse IL-22 receptor transfected BaF3 cells” value in assay [12] was 6.2 fold. Also, in the assay with mouse IL-22RA-ECD [13], the “fold lower affinity compared to human IL-22RA” value is approximately 100 fold.
